Experimental findings from PMC9668737, “Herpes simplex virus 1 protein pUL21 alters ceramide metabolism by activating the interorganelle transport protein CERT” (The Journal of Biological Chemistry, 2022) are described below.

Where a chain is given by its changes, count along the chain named. Names may count otherwise.

The target of data set [1] is CERTL (CERT, long isoform) (UniProt Q9Y5P4). Put plainly: SEC-MALS of self-association. The note with it: reference: wild-type CERTL, hyperphosphorylated (CERTLP); sites S132. Background: In gel filtration, larger molecules generally elute earlier.
Data set [2] concerns the target T1, H6-pUL21C (herpes simplex virus 1 (HSV-1), UniProt F8RG07 275-535).
T1 construct: HSV-1 pUL21 C-terminal domain, amino acids 275-535, UniProt F8RG07; Cloned in pOPTH; Monomer by SEC-MALS and SAXS; also called C-terminal domain of pUL21; source: E. coli T7 Express lysY/Iq, purified (Ni-NTA, SEC); not shown: MAH6, N-terminal, kept
T1 sequence: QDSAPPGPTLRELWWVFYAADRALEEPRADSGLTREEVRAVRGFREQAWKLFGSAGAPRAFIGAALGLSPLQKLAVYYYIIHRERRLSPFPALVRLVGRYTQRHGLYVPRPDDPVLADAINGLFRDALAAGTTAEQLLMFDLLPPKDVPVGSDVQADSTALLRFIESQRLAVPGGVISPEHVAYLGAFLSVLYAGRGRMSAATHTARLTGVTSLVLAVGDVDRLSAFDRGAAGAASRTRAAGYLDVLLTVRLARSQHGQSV
The experiment in a line: ITC; 25 °C; 20 mM Tris pH 8.5, 500 mM NaCl, 0.5 mM TCEP; CERTL forms in the syringe titrated into pUL21 forms in the cell; one-site binding model. As to conditions: both partners purified. Background: Isothermal titration calorimetry measures the heat released or taken up as one component is titrated into another.

Data set [3] has as its target T2, pUL21^V382E-H6 (herpes simplex virus 1 (HSV-1), UniProt F8RG07 1-535, V382E).
T2 construct: HSV-1 pUL21, UniProt F8RG07, V382E; the results text prints H6-pUL21^V382E; also called H6-pUL21^V382E; source: E. coli T7 Express lysY/Iq, purified (Ni-NTA, SEC); not shown: His6, C-terminal, kept
T2 sequence: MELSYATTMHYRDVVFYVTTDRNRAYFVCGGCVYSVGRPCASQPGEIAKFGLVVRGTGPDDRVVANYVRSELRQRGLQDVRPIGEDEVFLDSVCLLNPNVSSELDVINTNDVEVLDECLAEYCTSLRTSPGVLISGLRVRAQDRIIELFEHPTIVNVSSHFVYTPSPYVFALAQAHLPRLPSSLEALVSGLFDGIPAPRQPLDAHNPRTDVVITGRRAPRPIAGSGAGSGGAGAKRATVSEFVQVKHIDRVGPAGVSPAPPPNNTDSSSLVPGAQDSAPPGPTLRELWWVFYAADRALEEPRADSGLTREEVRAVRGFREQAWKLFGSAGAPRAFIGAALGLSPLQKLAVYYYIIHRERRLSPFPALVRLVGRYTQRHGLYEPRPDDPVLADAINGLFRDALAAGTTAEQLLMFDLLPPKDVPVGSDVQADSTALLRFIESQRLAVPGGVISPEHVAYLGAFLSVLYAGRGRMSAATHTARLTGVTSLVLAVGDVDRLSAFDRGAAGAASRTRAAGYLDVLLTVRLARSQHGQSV
Described as above. As to conditions: both partners purified.

Data set [4] concerns the target T3, pUL21-H6 (herpes simplex virus 1 (HSV-1), UniProt F8RG07 1-535).
T3 construct: HSV-1 pUL21, UniProt F8RG07; some paragraphs print H6-pUL21; also called H6-pUL21; WT pUL21; source: E. coli T7 Express lysY/Iq, purified (Ni-NTA, SEC); not shown: His6, C-terminal, kept
T3 sequence: T2 sequence with E382V
The data set is described as above. The note with it: both partners purified.

Data set [5] deals with the molecule itself. Put plainly: SEC-MALS; Superose 6 increase 10/300 GL; 20 mM Tris pH 8.5, 500 mM NaCl, 0.5 mM TCEP; samples injected at 2 mg/ml.

For the molecule “CERTL (CERT, long isoform) (from UniProt Q9Y5P4) CERTL S132A (hypophosphorylated)”, the “other: observed mass (expected trimer 215.7)” value in data set [1] is recorded as “same; reference 184.3”.

B1: H6-miniCERTL (domain or fragment, human, UniProt Q9Y5P4-1 20-624, looked up)
chain: SGPPVERCGVLSKWTNYIHGWQDRWVVLKNNALSYYKSEDETEYGCRGSICLSKAVITPHDFDECRFDISVNDSVWYLRAQDPDHRQQWIDAIEQHKTESGYGSESSLRRHGTSLPSGDAFSSVGTHRFVQKPYSRSSSMSSIDLVSASDDVHRFSSQVEEMVQNHMTYSLQDVGGDANWQLVVEEGEMKVYRREVEENGIVLDPLKATHAVKGVTGHEVCNYFWNVDVRNDWETTIENFHVVETLADNAIIIYQTHKRVWPASQRDVLYLSVIRKIPALTENDPETWIVCNFSVDHDSAPLNNRCVRAKINVAMICQTLVSPPEGNQEISRDNILCKITYVANVNPGGWAPASVLRAVAKREYPKFLKRFTSYVQEKTAGKPILF
notes: human CERTL, UniProt Q9Y5P4-1, residues 20-131 plus 351-624 (PH and STARTL domains joined by a retained 23 amino acid stretch of the middle region); Cloned into pOPTH; Monomer by SEC-MALS; source: E. coli T7 Express lysY/Iq, purified (Ni-NTA, SEC); not shown: MAH6, N-terminal, kept
The term stoichiometry N denotes a count of units in the complex or per binding partner. One may read the Kd as the equilibrium constant for the complex coming apart. High values mean a looser complex, low ones a tighter complex. On to B1, for which the values for the dH in data set [2], in data set [3] and in data set [4] were -3.84 kcal/mol, -7.2 kcal/mol and -8.65 kcal/mol, respectively. Moreover, the “stoichiometry N” value in data set [2] was 0.97; in data set [3], 1.16; in data set [4], 0.89. Further, the Kd was 8.09 µM in data set [3] and 1.04 µM in data set [4].

B2: StrepII-CERTL^P (hyperphosphorylated StrepII-tagged CERTL) (natural protein, human, UniProt Q9Y5P4-1 1-624, looked up)
chain: MSDNQSWNSSGSEEDPETESGPPVERCGVLSKWTNYIHGWQDRWVVLKNNALSYYKSEDETEYGCRGSICLSKAVITPHDFDECRFDISVNDSVWYLRAQDPDHRQQWIDAIEQHKTESGYGSESSLRRHGSMVSLVSGASGYSATSTSSFKKGHSLREKLAEMETFRDILCRQVDTLQKYFDACADAVSKDELQRDKVVEDDEDDFPTTRSDGDFLHSTNGNKEKLFPHVTPKGINGIDFKGEAITFKATTAGILATLSHCIELMVKREDSWQKRLDKETEKKRRTEEAYKNAMTELKKKSHFGGPDYEEGPNSLINEEEFFDAVEAALDRQDKIEEQSQSEKVRLHWPTSLPSGDAFSSVGTHRFVQKPYSRSSSMSSIDLVSASDDVHRFSSQVEEMVQNHMTYSLQDVGGDANWQLVVEEGEMKVYRREVEENGIVLDPLKATHAVKGVTGHEVCNYFWNVDVRNDWETTIENFHVVETLADNAIIIYQTHKRVWPASQRDVLYLSVIRKIPALTENDPETWIVCNFSVDHDSAPLNNRCVRAKINVAMICQTLVSPPEGNQEISRDNILCKITYVANVNPGGWAPASVLRAVAKREYPKFLKRFTSYVQEKTAGKPILF
modifications: hyperphosphorylated (sites not given)
notes: human CERTL, UniProt Q9Y5P4-1, synthetic gene; Trimer by SEC-MALS (observed 184.3 kDa, expected 215.7 kDa); not shown: StrepII, N-terminal, kept
Regarding B2, in data set [4], the dH is 3.89 kcal/mol and the “stoichiometry N” value was 0.74. Besides, the “stoichiometry N” value in data set [5] was ~3.

B3: StrepII-CERTL^S132A (natural protein, human, UniProt Q9Y5P4-1 1-624, looked up)
chain: B2 chain with S132A
modifications: hypophosphorylated
notes: human CERTL, UniProt Q9Y5P4-1, synthetic gene, S132A; Trimer by SEC-MALS (observed 199.2 kDa); also called constitutively hypophosphorylated form of CERTL; source: Freestyle 293F, stably transfected, doxycycline-induced, purified (StrepTrap HP, Superose 6 SEC); not shown: StrepII, N-terminal, kept
Turning to B3, the dH in data set [4] stood at 2.38 kcal/mol. The “stoichiometry N” value is 0.97 in data set [4] and ~3 in data set [5].
